{"source": "patent US11834518", "about": "(dated 2023)", "key": {"STEP32 C/S [1]": {"biological_target": "T1, STEP32 C/S (human, UniProt P54829)", "T1 chain": "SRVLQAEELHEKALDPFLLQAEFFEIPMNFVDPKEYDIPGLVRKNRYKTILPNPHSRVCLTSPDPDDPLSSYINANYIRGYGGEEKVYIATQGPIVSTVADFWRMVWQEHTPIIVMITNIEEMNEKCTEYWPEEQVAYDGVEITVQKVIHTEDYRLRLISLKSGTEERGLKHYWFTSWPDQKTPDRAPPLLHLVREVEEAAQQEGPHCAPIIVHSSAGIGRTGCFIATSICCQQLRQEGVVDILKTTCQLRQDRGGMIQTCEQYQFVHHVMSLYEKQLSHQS", "assay": "FP competition"}, "STEP32 C/S [2]": {"biological_target": "T1, STEP32 C/S", "assay": "SPR 25C"}, "STEP32 C/S [3]": {"biological_target": "T1, STEP32 C/S", "assay": "SPR 25C"}, "STEP32 C/S [4]": {"biological_target": "T1, STEP32 C/S", "assay": "FP competition"}, "STEP32 C/S [5]": {"biological_target": "T1, STEP32 C/S", "assay": "FP competition"}, "STEP32 C/S [6]": {"biological_target": "T1, STEP32 C/S", "assay": "FP competition"}, "STEP32 C/S [7]": {"biological_target": "T1, STEP32 C/S", "assay": "SPR 25C"}, "STEP32 C/S [8]": {"biological_target": "T1, STEP32 C/S", "assay": "SPR 25C"}, "STEP32 WT [9]": {"biological_target": "T2, STEP32 WT (human, UniProt P54829)", "T2 chain": "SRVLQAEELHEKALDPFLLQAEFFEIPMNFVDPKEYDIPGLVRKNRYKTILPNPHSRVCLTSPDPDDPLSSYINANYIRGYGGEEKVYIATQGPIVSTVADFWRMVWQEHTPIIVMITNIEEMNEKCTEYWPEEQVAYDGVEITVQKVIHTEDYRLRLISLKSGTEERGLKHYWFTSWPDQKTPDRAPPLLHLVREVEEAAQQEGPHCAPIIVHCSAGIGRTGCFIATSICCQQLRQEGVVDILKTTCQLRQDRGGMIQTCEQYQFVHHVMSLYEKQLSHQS", "assay": "SPR 25C"}, "STEP32 WT [10]": {"biological_target": "T2, STEP32 WT", "assay": "SPR 25C"}}, "note": "Read-outs that look alike come from different tables or passages of the source. Square brackets hold non-standard residues; d marks the D form. Ends that are not written are not given here. F2Pmp = N[C@@H](Cc1ccc(C(F)(F)P(=O)(O)O)cc1)C(=O)O; pY = N[C@@H](Cc1ccc(OP(=O)(O)O)cc1)C(=O)O; AEEA = NCCOCCOCC(=O)O"}
{"binder": "ATYKEAYNV[pY]G", "note": "[p3YAla6]", "values": [{"measurement": "Ki", "setting": "STEP32 C/S [1]", "value": 2310, "unit": "nM"}]}
{"binder": "[AEEA]NV[pY]G", "note": "[p3Ysh-1]", "values": [{"measurement": "Kd", "setting": "STEP32 C/S [2]", "value": 26000, "unit": "nM"}, {"measurement": "Kd", "setting": "STEP32 C/S [3]", "value": 26, "unit": "µM"}, {"measurement": "Ki", "setting": "STEP32 C/S [4]", "value": 4.99, "unit": "µM"}]}
{"binder": "ATYKAGYNV[pY]G", "note": "[p3YAla5]", "values": [{"measurement": "Ki", "setting": "STEP32 C/S [1]", "value": 4140, "unit": "nM"}]}
{"binder": "GYNV[pY]", "note": "[p-fin 1]", "values": [{"measurement": "IC50", "setting": "STEP32 C/S [5]", "value": 8.01, "unit": "µM"}, {"measurement": "Ki", "setting": "STEP32 C/S [6]", "value": 1900, "unit": "nM"}]}
{"binder": "EGYNV[pY]E", "note": "[p-fin 4]", "values": [{"measurement": "Kd", "setting": "STEP32 C/S [2]", "value": 88.4, "unit": "nM"}, {"measurement": "Kd", "setting": "STEP32 C/S [7]", "value": 90, "unit": "nM"}, {"measurement": "IC50", "setting": "STEP32 C/S [5]", "value": 1.86, "unit": "µM"}, {"measurement": "Ki", "setting": "STEP32 C/S [6]", "value": 360, "unit": "nM"}]}
{"binder": "[AEEA]EGYNV[pY]", "note": "[p3Ysh-3]", "values": [{"measurement": "Kd", "setting": "STEP32 C/S [2]", "value": 53.1, "unit": "nM"}, {"measurement": "Kd", "setting": "STEP32 C/S [3]", "value": 0.06, "unit": "µM"}, {"measurement": "IC50", "setting": "STEP32 C/S [5]", "value": 2.6, "unit": "µM"}, {"measurement": "Ki", "setting": "STEP32 C/S [4]", "value": 1.64, "unit": "µM"}, {"measurement": "Ki", "setting": "STEP32 C/S [6]", "value": 690, "unit": "nM"}]}
{"binder": "[AEEA]YNV[pY]G", "note": "[p3Ysh-2]", "values": [{"measurement": "Kd", "setting": "STEP32 C/S [2]", "value": 3960, "unit": "nM"}, {"measurement": "Kd", "setting": "STEP32 C/S [3]", "value": 3.96, "unit": "µM"}, {"measurement": "Ki", "setting": "STEP32 C/S [4]", "value": 13.1, "unit": "µM"}]}
{"binder": "EGYNV[pY]GD", "note": "[p-fin 5]", "values": [{"measurement": "IC50", "setting": "STEP32 C/S [5]", "value": 3.36, "unit": "µM"}, {"measurement": "Ki", "setting": "STEP32 C/S [6]", "value": 760, "unit": "nM"}]}
{"binder": "[AEEA]NS[pY]G", "note": "[p3Ysh-4]", "values": [{"measurement": "binding result", "setting": "STEP32 C/S [8]", "value": "no binding"}, {"measurement": "Ki", "setting": "STEP32 C/S [4]", "value": 13.7, "unit": "µM"}]}
{"binder": "[AEEA]FGYNV[pY]G", "note": "[p3Ysh-6]", "values": [{"measurement": "Kd", "setting": "STEP32 C/S [2]", "value": 6130, "unit": "nM"}, {"measurement": "Kd", "setting": "STEP32 C/S [3]", "value": 6.13, "unit": "µM"}, {"measurement": "Ki", "setting": "STEP32 C/S [4]", "value": 6.96, "unit": "µM"}]}
{"binder": "AAYKEGYNV[pY]G", "note": "[p3YAla2]", "values": [{"measurement": "Ki", "setting": "STEP32 C/S [1]", "value": 1620, "unit": "nM"}]}
{"binder": "[AEEA]FS[pY]G", "note": "[p3Ysh-7]", "values": [{"measurement": "binding result", "setting": "STEP32 C/S [8]", "value": "no binding"}, {"measurement": "Ki", "setting": "STEP32 C/S [4]", "value": 4.57, "unit": "µM"}]}
{"binder": "ATYKEGANV[pY]G", "note": "[p3YAla7]", "values": [{"measurement": "Ki", "setting": "STEP32 C/S [1]", "value": 4450, "unit": "nM"}]}
{"binder": "ATYKEGYNV[pY]G", "note": "[p3Y]", "values": [{"measurement": "Kd", "setting": "STEP32 C/S [2]", "value": 232, "unit": "nM"}, {"measurement": "Kd", "setting": "STEP32 C/S [3]", "value": 0.24, "unit": "µM"}, {"measurement": "Ki", "setting": "STEP32 C/S [4]", "value": 2.36, "unit": "µM"}, {"measurement": "Ki", "setting": "STEP32 C/S [1]", "value": 2820, "unit": "nM"}]}
{"binder": "ATYKEGYNV[pY]A", "note": "[p3YAla10]", "values": [{"measurement": "Ki", "setting": "STEP32 C/S [1]", "value": 2710, "unit": "nM"}]}
{"binder": "ATYAEGYNV[pY]G", "note": "[p3YAla4]", "values": [{"measurement": "Ki", "setting": "STEP32 C/S [1]", "value": 2530, "unit": "nM"}]}
{"binder": "ATYKEGYNA[pY]G", "note": "[p3YAla9]", "values": [{"measurement": "Ki", "setting": "STEP32 C/S [1]", "value": 5940, "unit": "nM"}]}
{"binder": "DGYNV[pY]", "note": "[p-fin 2]", "values": [{"measurement": "IC50", "setting": "STEP32 C/S [5]", "value": 7.15, "unit": "µM"}, {"measurement": "Ki", "setting": "STEP32 C/S [6]", "value": 1850, "unit": "nM"}]}
{"binder": "ATYKEGYNV[F2Pmp]G", "note": "[3Y-F2Pmp]", "values": [{"measurement": "Kd", "setting": "STEP32 WT [9]", "value": 270, "unit": "nM"}, {"measurement": "Kd", "setting": "STEP32 WT [10]", "value": 268, "unit": "nM"}]}
{"binder": "NGYNV[pY]", "note": "[p-fin 3]", "values": [{"measurement": "IC50", "setting": "STEP32 C/S [5]", "value": 8.84, "unit": "µM"}, {"measurement": "Ki", "setting": "STEP32 C/S [6]", "value": 2160, "unit": "nM"}]}
{"binder": "[AEEA]YV[pY]G", "note": "[p3Ysh-5]", "values": [{"measurement": "Ki", "setting": "STEP32 C/S [4]", "value": 5.34, "unit": "µM"}]}
{"binder": "ATYKEGYAV[pY]G", "note": "[p3YAla8]", "values": [{"measurement": "Ki", "setting": "STEP32 C/S [1]", "value": 2470, "unit": "nM"}]}
{"binder": "ATAKEGYNV[pY]G", "note": "[p3YAla3]", "values": [{"measurement": "Ki", "setting": "STEP32 C/S [1]", "value": 4810, "unit": "nM"}]}
{"binder": "EGYNV[F2Pmp]", "note": "[3Ysh-3-F2Pmp]", "values": [{"measurement": "Kd", "setting": "STEP32 WT [9]", "value": 240, "unit": "nM"}, {"measurement": "Kd", "setting": "STEP32 WT [10]", "value": 242, "unit": "nM"}]}
